Target: SARS-CoV-2 S1 protein (HIS tag, active trimer; Acro Biosystems #SPN-C52H8) (SARS-CoV-2, UniProt P0DTC2 16-1213)
Test: ELISA on coated S active trimer

Binder	EC50 [ng/mL]
P043.A.00047.H08 (protein sample ID 447) (antibody, V domains shown, also called antibody with the Protein sample ID 447) VH: QSLEESGGDLVKPGASLTLTCTASGFSFSSDGMCWVRQAPGKGLEWIACIAAGSSGSTYYATWAQGRFTISKSSSTTVTLQMTSLTAADTATYFCAGEDYTGNNYYALWGPGTLVTVSS VL: AIDMTQTPSPVSAVVGDTVTINCQASENIYSFLAWYQQKPGQPPKLLIYFASKLASGVPSRFKGSGSGTQFTLTISDVHSDDAAIYYCQQTGTYSDADNTFGGGTEVVVK	9.1
P043.A.00095.D06 (protein sample ID 470) (antibody, V domains shown, also called S1 targeting antibody 470; anti-S1-antibody 470) VH: QEQLEESGGDLVKPEGSLTLTCTASGFSFSSNYWICWVRQAPGKGLEWIGCIYIGSGDTYYASWAKGRFTISKTSSTTVTLQMTSLTAADTATYFCARSYTPGSYYNMNLWGPGTLVTVSS VL: DVVMTQTPSSVSAAVGGTVTINCQASQQISNELSWYQQKSGQPPKLLIYDASDLASGVPSRFKGSGSGTEFTLTISDLESADAATYYCQSTGGASSDGNAFGGGTEVVVK	6.9
408: Antibody anti-S1 antibody (LS) (antibody) heavy: not shown light: […]	25.6
P043.A.00023.E05 (antibody, V domains shown, also called 443; protein sample ID 443) VH: QSLEESGGRLVTPGTPLTLTCTVSGFSLSSYAMSWVRQAPGKGLEWIGIISSSGSTYYASWAKGRFTISKTSTTVDLKITSPTTEDTATYFCARDASSRGYYYYYGMDPWGPGTLVTVSS VL: AIQMTQSPSSLAASVGDTVTITCKASEDIGYGLNWYQQKLGIAPKLLIYGANTLESGVPSRFSGSGSETDYTLTISSVQAEDAGIYYCQQGYSTPLTFGAGTKVEIK	9
P043.A.00092.C12 (antibody, V domains shown, also called 472; protein sample ID 472) VH: QEELKETGGGLVQPGGSLTLSCKASGFDFSSYYMSWVRQAPGKGLEWIGVIYASKGSTDYASWVNGRFTISSDNAQNTVDLQMNSLTAADTATYYCARSKRFYTYGYAGYAYAHYYYGMDLWGPGTLVTVSS VL: AIQMTQSPSSLAASVGDTVTITCKASEDIGYGLNWYQQKLGIAPKLLIYGADTLESGVPSRFSGSGSETDYTLTISSVQAEDAGIYYCQQGYSTPLTFGAGTKVEIK	10.6
P043.A.00097.B02 (antibody, V domains shown) VH: QELVESGGGLVQAGESLKLSCKASGIDFSSYGISWVRQAPGKGLEWIAYIYPGFGITNYANSVKGRFTISSDNAQNTVFLQMTSLTASDTATYFCTRAYASSSGYYIHYFNLWGPGTLVTVSS VL: AIQMTQSPSSLAASVGDTVTITCKASEDIGYGLNWYQQKLGIAPKLLIYGANTLESGVPSRFSGSGSETDYTLTISSVQAEDAGIYYCQQAYSTPLTFGAGTKVEIK	6.9
P043.A.00020.D06 (protein sample ID 444) (antibody, V domains shown) VH: QSVEESGGRLVTPGTPLTLTCTVSGFSLSSYAMNWVRQAPGKGLEWIGIISSSGSTYYASWAKGRFTISKTSTTVDLKITSPTTEDTATYFCARVGAGYAGYGYDNYYGMDPWGPGTLVTVSS VL: AIQMTQSPSSLAASVGDTVTITCKASEDIGYGLNWYQQKLGIAPKLLIYGANTLESGVPSRFSGSGSETDYTLTISSVQAEDAGIYYCQQGYSTPLTFGAGTKVEIK	11.2
P043.A.00017.E07 (protein sample ID 449) (antibody, V domains shown) VH: QSVEESGGRLVTPGTPLTLTCTVSGFSLSSYAMSWVRQAPGKGLEWIGIISSSGSTYYASWAKGRFTISKTSTTVDLKITSPTTEDTATYFCARAMYPGYSTGVYNIWGPGTLVTVSL VL: AIQMTQSPSSLAASVGDTVTITCKASEDIGYELNWYQQKLGIAPKLLIYGANTLESGVPSRFSGSGSETDYTLTISSVQAEDAGIYYCQQGYNTPNTFGAGTKVEIK	6.6
P043.A.00023.A08 (protein sample ID 446) (antibody, V domains shown) VH: QSVEESGGRLVTPGTPLTLTCTVSGFSLSKYAMSWVRQAPGKGLEWIGIISSGGSTYYASWAKGRFTISKTSSTTVDLKITSPTTEDTATYFCARAGYPGYSPHYFNIWGPGTLVTVSL VL: AIQMTQSPSSLAASVGDTVTITCKASEDIGYELNWYQQKLGIAPKLLIYGANTLESGVPSRFTGSGSETDYTLTISSVQAEDAGIYYCQQGYSTPPTFGAGTKVEIK	5.6
P043.A.00017.E04 (antibody, V domains shown) VH: QSVEESGGRLVTPGTPLTLTCTVSGFSLNNYAMNWVRQAPGKGLEWIGIISSSGNTYYANWAKGRFTISKTSTTVDLKITSPTTEDTATYFCARDSYPGYSPYYGMDPWGPGTLVTVSS VL: AIQMTQSPSSLAASVGDTVTITCKASEDIAYGLNWYQQKLGITPKLLIYGANTLESGVPSRFSGSGSETHYTLTISSVQAEDAGIYYCQQGYNTPPTFGAGTKVEIK	6.4
P043.A.00024.C11 (protein sample ID 451) (antibody, V domains shown) VH: QSVEESGGRLVTPGTPLTLTCTVSGFSLSSYAMSWVRQAPGKGLEWIGIISSSGTTYYASWAKGPFTISKTSTTVDLKITSPTTEDTATYFCARGGAGYGYAHYYGMDPWGPGTLVTVSS VL: AIQMTQSPSSLAASVGDTVTITCKASEDIGYGLNWYQQKLGIAPKLLIYGANTLESGVPSRFSGSGSETDYTLTISSVQAEDAGIYYCQQGYSTPLTFGAGTKVEIK	8.8
P043.A.00018.C02 (protein sample ID 450) (antibody, V domains shown) VH: QSVEESGGRLVTPGTPLTLTCTVSGFSLSSYAMSWVRQAPGKGLEWIGIINSGRSTYYASWAKGRFTISKTSTTVDLKITSPTTEDTATYFCARDATSIGYYRYYGMDPWGPGTLVTVSS VL: AIQMTQSPSSLAASVGDTVTITCKASEDIGYGLNWYQQKLGIAPKLLIYGANTLESGVPSRFSGSGSETDYTLTISSVQAEDAGIYYCQQGYSTPLTFGAGTKVEIK	6.6
P043.A.00036.C07 (antibody, V domains shown, also called 448; protein sample ID 448) VH: QSLEESGGDLVKPGASLTLTCTASGFSFSSSYWICWVRQAPGKGLEWIGCIYTGSGSTWYASWAKGRFTISKTSSTTVTLQMTSLTAADTATYFCARGYGSYMYDFWGPGTLVTVSS VL: DVVMTQTPASVEAAVGGTVTIKCQASQSISTALAWYQQKPGQPPKLLIYSASTLESGVPSRFKGSGSGTEFTLAISDLESADAATYYCQGADGSSSSFGGGTEVVVK	7.7
P043.A.00032.C04 (antibody, V domains shown, also called 452; protein sample ID 452) VH: QSLEESGGRLVTPGTPLTLTCTASGFSLSSYWMSWVRQAPGKGLEWIGIIYVSGSTYYASWAKGRFTISKTSTTVDLKMTSLTTEDTATYFCARVDYSTGWPLFNIWGPGTLVTVSL VL: AQVLTQTASPVSAAVGGTVTINCQSSQSVYDNNWLGWYQQKPGQPPKLLIYGASILASGVPSRFKGSGSGTQFTLTISDLESDDAATYYCQGGCSGNTFVFGGGTEVVVK	8.2
P043.A.00109.B12 (antibody, V domains shown, also called 468; protein sample ID 468) VH: QSLEESGGGLVKPEGSLTLTCKASGFDLNTYYYMCWVRQAPGKGLEWIACIATSDSGHTAYASWARGRFTISKTSSTTVTLQMTGLTAADTATYFCARGGRSVGDGVDLWGPGTLVTVSS VL: DIVMTQTPASVEAAVGGTVTIKCQASQSISSWLAWYQQKPGQPPKLLIYDASDLASGVPSRFKGSGSGTEFTLTISDLESADAATYYCQSYLYVESGSHGFGFGGGTEVVVR	10
P043.A.00117.C08 (protein sample ID 469) (antibody, V domains shown) VH: QSLEESGGGLVKPEGSLTLTCKASGFDLNTYYYMCWVRQAPGKGLEWIACIGTSDSGHTAYASWARGRFTISKTSSTTVTLQMTGLTAADTATYFCARGGRSVGDGVDLWGPGTLVTVSS VL: DIVMTQTPASVEAAVGGTVTIKCQASQSISSWLAWYQQKPGQPPKLLIYDAFDLASGVPSRFKGSGSGTEFTLTISDLESADAATYYCQSYLYGESGSHGFGFGGGTEVVVR	7.8

Reference: patent US20230287088A1 (BIONTECH, published 2023)
